Experimental data reported in publication PMC7022633, “Gene Cloning, Recombinant Expression, Characterization, and Molecular Modeling of the Glycolytic Enzyme Triosephosphate Isomerase from Fusarium oxysporum” (Microorganisms, 2019).

Molecular target: recombinant triosephosphate isomerase from Fusarium oxysporum (FoxTPI) (Fusarium oxysporum)
Assay: SEC; gel filtration on Sephacryl 100 (16/60), 50 mM Tris pH 8.0, 0.5 mL/min; calibrated with Bio-Rad gel filtration standard; single peak at 47 mL, relative MW 56 kDa

## recombinant triosephosphate isomerase from Fusarium oxysporum (FoxTPI) (enzyme)
  stoichiometry N: 2
